# Measurements taken from IntAct's records for PubMed 9874765.
# Molecular target: cir1_human CIR1 (UniProt Q86X95)
# Sequence (Q86X95 whole entry): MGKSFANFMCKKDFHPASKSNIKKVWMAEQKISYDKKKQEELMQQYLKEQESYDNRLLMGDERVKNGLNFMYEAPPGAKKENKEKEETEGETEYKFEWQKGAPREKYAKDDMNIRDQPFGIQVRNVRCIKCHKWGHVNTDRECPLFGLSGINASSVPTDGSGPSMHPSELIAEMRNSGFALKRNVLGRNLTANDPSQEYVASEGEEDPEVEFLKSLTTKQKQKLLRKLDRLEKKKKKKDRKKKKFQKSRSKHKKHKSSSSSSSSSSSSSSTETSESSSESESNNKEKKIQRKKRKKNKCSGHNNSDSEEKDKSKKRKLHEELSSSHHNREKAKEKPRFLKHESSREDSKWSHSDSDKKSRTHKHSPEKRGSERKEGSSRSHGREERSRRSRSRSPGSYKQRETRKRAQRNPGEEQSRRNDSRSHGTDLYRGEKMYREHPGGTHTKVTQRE
# Sequence of Recombining binding protein suppressor of hairless (Homo sapiens), Q06330 E233A;E234A;F235A (Q06330 whole entry E233A/E234A/F235A): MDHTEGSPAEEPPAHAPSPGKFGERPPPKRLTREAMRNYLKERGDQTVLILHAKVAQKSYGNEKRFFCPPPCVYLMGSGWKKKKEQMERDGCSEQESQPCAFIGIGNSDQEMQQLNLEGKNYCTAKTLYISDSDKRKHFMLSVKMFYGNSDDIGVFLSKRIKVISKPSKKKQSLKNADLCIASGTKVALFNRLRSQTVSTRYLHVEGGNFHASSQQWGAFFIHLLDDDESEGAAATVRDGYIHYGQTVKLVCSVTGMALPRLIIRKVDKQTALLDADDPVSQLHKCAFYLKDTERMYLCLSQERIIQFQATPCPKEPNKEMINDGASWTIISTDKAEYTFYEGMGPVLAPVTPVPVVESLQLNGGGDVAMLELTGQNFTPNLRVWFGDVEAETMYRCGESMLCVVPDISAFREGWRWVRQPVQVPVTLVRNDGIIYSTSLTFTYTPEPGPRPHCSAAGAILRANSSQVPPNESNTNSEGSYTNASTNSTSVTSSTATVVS
# Sequence of Recombining binding protein suppressor of hairless (Homo sapiens), Q06330 K249A;L250A;V251A (Q06330 whole entry K249A/L250A/V251A): as the sequence (Q06330 whole entry E233A/E234A/F235A) above, with A233E, A234E, A235F, K249A, L250A, V251A counted along it
row,effect of a mutation on the interaction,Substance
1,disrupting interaction strength,"Recombining binding protein suppressor of hairless (Homo sapiens), Q06330 E233A;E234A;F235A"
2,disrupting interaction strength,"Recombining binding protein suppressor of hairless (Homo sapiens), Q06330 K249A;L250A;V251A"
